Measurements published in CN106146655A (UNIV NANCHANG, dated 2016).
Where no end group is shown, it is not given here.

Target: T1, 6×His标签 (组氨酸标签), 人工抗原6×His-OVA (also: covalently coupled to ovalbumin (OVA), chemistry and site not given here)
T1 construct: also called 多组氨酸标签; hexa组氨酸标签
T1 peptide: HHHHHH
Test: indirect phage-ELISA of phage-displayed VHH clones after three rounds of panning on 6×His-OVA

B1: 针对His标签的单域重链抗体 (针对组氨酸标签的纳米抗体) (VHH)
VHH: QVQLVESGGGLVQAGGSLRLSCAVSGFTFSANAMSWVRQAPGKGPEWVSSINRGGASAEYADSVKGRFTISRDDAKNTLYLQMNSLKPEDTALYYCARGNYRGSYFNGPRTYWGRGTQVTVSP
notes: From an alpaca (Lama pacos) immune library; also called 抗His标签单域重链抗体
Question: Does B1 bind?
Answer: binds
